In patent US5834273A, “Heat-stable and water soluble modified enzymes” (Wako Pure Chemical Industries, Ltd., priority 1991, dated 1998):

Target: T1, XOD (Bos taurus, UniProt P80457)
T1 construct: purchased Boehringer Mannheim GmbH
Test: Thermal stability of XOD
Type: physicochemical, cow
Conditions: 75 min, pH 7.0, 0.2 U/ml
Method: Measuring Method of XOD Activity
The method described in Method of Enzymatic Analysis, vol. 3, pages 212, 1983.
To 2 ml of aqueous solution containing 5 mg of pyromellitic acid-modified dextran obtained in Example 1(1), 65 mg of WSC was added. To the resulting solution maintained at pH 6.0 using a pH-stat, 0.5 ml of 10 mM phosphate buffer solution (pH 7.0) containing 10 mg of XOD (mfd. by Boehringer Mannheim GmbH., derived from cow milk) was added and reacted at 50° C. for 24 hours.
The thus obtained modified XOD and the intact XOD were dissolved in 20 mM phosphate buffer solution (pH 7.0) in an amount of 0.2 U/ml, respectively,and stored at a predetermined temperature for 75 min. to measure the change of residual activity.

T1 sequence (P80457 whole entry): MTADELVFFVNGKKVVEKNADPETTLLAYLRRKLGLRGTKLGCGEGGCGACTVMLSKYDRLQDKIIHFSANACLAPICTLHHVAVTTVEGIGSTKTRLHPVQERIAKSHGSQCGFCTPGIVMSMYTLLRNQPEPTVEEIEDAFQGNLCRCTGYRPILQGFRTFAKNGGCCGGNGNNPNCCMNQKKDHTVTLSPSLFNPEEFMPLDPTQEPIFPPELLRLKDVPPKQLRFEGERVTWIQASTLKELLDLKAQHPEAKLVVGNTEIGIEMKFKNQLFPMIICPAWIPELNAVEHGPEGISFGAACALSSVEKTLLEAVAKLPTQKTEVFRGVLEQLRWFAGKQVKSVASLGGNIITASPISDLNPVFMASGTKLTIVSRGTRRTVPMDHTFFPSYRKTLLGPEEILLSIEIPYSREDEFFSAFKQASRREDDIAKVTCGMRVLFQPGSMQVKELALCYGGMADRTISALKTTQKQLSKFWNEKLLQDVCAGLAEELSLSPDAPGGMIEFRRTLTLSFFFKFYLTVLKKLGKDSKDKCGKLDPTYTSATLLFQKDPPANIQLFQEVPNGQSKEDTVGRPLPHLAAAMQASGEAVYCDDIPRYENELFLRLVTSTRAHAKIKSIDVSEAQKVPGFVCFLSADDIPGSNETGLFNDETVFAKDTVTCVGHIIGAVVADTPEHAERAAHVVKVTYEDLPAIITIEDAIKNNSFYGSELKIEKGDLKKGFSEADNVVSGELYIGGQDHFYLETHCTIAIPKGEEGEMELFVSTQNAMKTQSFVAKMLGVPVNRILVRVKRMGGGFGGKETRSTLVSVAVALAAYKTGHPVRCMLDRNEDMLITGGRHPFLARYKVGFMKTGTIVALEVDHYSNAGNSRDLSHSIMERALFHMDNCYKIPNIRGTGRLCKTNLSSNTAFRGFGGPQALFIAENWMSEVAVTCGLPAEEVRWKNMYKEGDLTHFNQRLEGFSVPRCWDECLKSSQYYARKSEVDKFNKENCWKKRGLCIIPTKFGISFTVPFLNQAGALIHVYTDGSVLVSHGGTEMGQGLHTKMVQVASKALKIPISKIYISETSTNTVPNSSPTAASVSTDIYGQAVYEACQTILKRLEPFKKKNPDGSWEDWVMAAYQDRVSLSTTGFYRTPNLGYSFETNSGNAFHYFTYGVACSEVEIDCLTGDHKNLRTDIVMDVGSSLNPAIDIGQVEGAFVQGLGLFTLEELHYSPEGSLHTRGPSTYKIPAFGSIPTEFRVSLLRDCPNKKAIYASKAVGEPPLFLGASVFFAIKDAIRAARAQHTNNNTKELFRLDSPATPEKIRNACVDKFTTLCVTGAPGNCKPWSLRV

Intact XOD: xanthine oxidase (E.C.1.2.3.2), mfd. by Boehringer Mannheim GmbH., derived from cow milk
Residual activity (56 °C): 40.5%
Residual activity (58 °C): 31.2%
Residual activity (60 °C): 23.4%
